For 32 variants, percent of parent results are on record in publication PMC5207153, “Differential Receptor Binding and Regulatory Mechanisms for the Lymphangiogenic Growth Factors Vascular Endothelial Growth Factor (VEGF)-C and -D*^([image sbox.jpg])” (The Journal of Biological Chemistry, 2016).

The labels stand for the following.
B1: VEGF-DΔNΔC [human] / Recombinant human VEGFR-2-Fc chimera [human] (parent complex)
chain 1: FYDIETLKVIDEEWQRTQCSPRETCVEVASELGKSTNTFFKPPCVNVFRCGGCCNEESLICMNTSTSYISKQLFEISVPLTSVPELVPVKVANHTGCKCLPTAPRHPYS
chain 2: ASVGLPSVSLDLPRLSIQKDILTIKANTTLQITCRGQRDLDWLWPNNQSGSEQRVEVTECSDGLFCKTLTIPKVIGNDTGAYKCFYRETDLASVIYVYVQDYRSPFIASVSDQHGVVYITENKNKTVVIPCLGSISNLNVSLCARYPEKRFVPDGNRISWDSKKGFTIPSYMISYAGMVFCEAKINDESYQSIMYIVVVVGYRIYDVVLSPSHGIELSVGEKLVLNCTARTELNVGIDFNWEYPSSKHQHKKLVNRDLKTQSGSEMKKFLSTLTIDGVTRSDQGLYTCAASSGLMTKKNSTFVRVHEKPFVAFGSGMESLVEATVGERVRIPAKYLGYPPPEIKWYKNGIPLESNHTIKAGHVLTIMEVSERDTGNYTVILTNPISKEKQSHVVSLVVYVPPQIGEKSLISPVDSYQYGTTQTLTCTVYAIPPPHHIHWYWQLEEECANEPSQAVSVTNPYPCEEWRSVEDFQGGNKIEVNKNQFALIEGKNKTVSTLVIQAANVSALYKCEAVNKVGRGERVISFHVTRGPEITLQPDMQPTEQESVSLWCTADRSTFENLTWYKLGPQPLPIHVGELPTPVCKNLDTLWKLNATMFSNSTNDILIMELKNASLQDQGDYVCLAQDRKTKKRHCVVRQLTVLERVAPTITGNLENQTTSIGESIEVSCTASGNPPPQIMWFKDNETLVEDSGIVLKDGNRNLTIRRVRKEDEGLYTCQACSVLGCAKVEAFFIIEGAQEKTNLE
B2: VEGF-DΔNΔC [human] / Recombinant human VEGFR-3-Fc chimera [human] (parent complex)
chain 1: B1 chain 1
chain 2: YSMTPPTLNITEESHVIDTGDSLSISCRGQHPLEWAWPGAQEAPATGDKDSEDTGVVRDCEGTDARPYCKVLLLHEVHANDTGSYVCYYKYIKARIEGTTAASSYVFVRDFEQPFINKPDTLLVNRKDAMWVPCLVSIPGLNVTLRSQSSVLWPDGQEVVWDDRRGMLVSTPLLHDALYLQCETTWGDQDFLSNPFLVHITGNELYDIQLLPRKSLELLVGEKLVLNCTVWAEFNSGVTFDWDYPGKQAERGKWVPERRSQQTHTELSSILTIHNVSQHDLGSYVCKANNGIQRFRESTEVIVHENPFISVEWLKGPILEATAGDELVKLPVKLAAYPPPEFQWYKDGKALSGRHSPHALVLKEVTEASTGTYTLALWNSAAGLRRNISLELVVNVPPQIHEKEASSPSIYSRHSRQALTCTAYGVPLPLSIQWHWRPWTPCKMFAQRSLRRRQQQDLMPQCRDWRAVTTQDAVNPIESLDTWTEFVEGKNKTVSKLVIQNANVSAMYKCVVSNKVGQDERLIYFYVTTIPDGFTIESKPSEELLEGQPVLLSCQADSYKYEHLRWYRLNLSTLHDAHGNPLLLDCKNVHLFATPLAASLEEVAPGARHATLSLSIPRVAPEHEGHYVCEVQDRRSHDKHCHKKYLSVQALEAPRLTQNLTDLLVNVSDSLEMQCLVAGAHAPSIVWYKDERLLEEKSGVDLADSNQKLSIQRVREEDAGRYLCSVCNAKGCVNSSASVAVEGSEDKGSME

In one test the parent is B1. Briefly: ELISA; The same amount of each VEGF-DΔNΔC variant was used; assays conducted three times; parent: 100; read off a plot. On the technique in general: An ELISA detects its analyte on a solid surface through an enzyme-linked reagent.
With chain 1 W14A, the percent of parent was around 62%. Regarding chain 1 I10A, the percent of parent is around 20%. For the variant chain 1 Q15A, the percent of parent was around 110%. Still for that read-out and setting: as for chain 1 E12A, the figure is around 100%; as for chain 1 K8A, around 88%. On the same count and under the same terms, under chain 1 Y2A stands around 86%; under chain 1 L7A, around 19%; under chain 1 E13A, around 14%. With chain 1 R16A, the percent of parent was around 110%. Still for that read-out and setting: as for chain 1 D3A, the figure is around 95%; as for chain 1 V9A, around 110%; as for chain 1 F1A, around 89%. The same measure, in the same setting: as for chain 1 I4A, the figure is around 100%; as for chain 1 D11A, around 100%; as for chain 1 E5A, around 99%.

With chain 1 T6A, the percent of parent is around 100%.

The variants in another test derive from B2. The description is as above.
As for chain 1 D3A, the percent of parent is around 96%. On the same count and under the same terms, under chain 1 I4A stands around 99%; under chain 1 E13A, around 13%; under chain 1 Y2A, around 23%.

As for chain 1 V9A, the percent of parent was around 100%. Still for that read-out and setting: under chain 1 W14A stands around 72%; under chain 1 D11A, around 160%; under chain 1 F1A, around 72%. The same measure, in the same setting: as for chain 1 E12A, the figure is around 100%; as for chain 1 K8A, around 87%; as for chain 1 R16A, around 100%. On the same count and under the same terms, as for chain 1 T6A, the figure is around 97%; as for chain 1 I10A, around 9%; as for chain 1 Q15A, around 110%. With chain 1 E5A, the percent of parent is around 99%.

As for chain 1 L7A, the percent of parent was around 3%.
